Data reported in patent US20250297021A1.
Several values for one entry are separate records, joined by “and”; a condition that tells them apart may be missing. Equal entries are not always repeated. One block for each substance: values may come before it.

How the values were obtained:
[1] = target: human BCMA-His protein (human) (UniProt Q02223); assay: competition ELISA vs hAPRIL-biotin on coated human BCMA; antibody 0.14 nM
[2] = target: human BCMA-His protein (human) (UniProt Q02223); assay: competition ELISA vs hAPRIL-biotin on coated human BCMA; antibody 0.41 nM
[3] = target: human BCMA-His protein (human) (UniProt Q02223); assay: competition ELISA vs hAPRIL-biotin on coated human BCMA; antibody 1.23 nM
[4] = target: human BCMA-His protein (human) (UniProt Q02223); assay: competition ELISA vs hAPRIL-biotin on coated human BCMA; antibody 3.70 nM
[5] = target: human BCMA-His protein (human) (UniProt Q02223); assay: competition ELISA vs hAPRIL-biotin on coated human BCMA; antibody 11.11 nM
[6] = target: human BCMA-His protein (human) (UniProt Q02223); assay: competition ELISA vs hAPRIL-biotin on coated human BCMA; antibody 33.33 nM
[7] = target: human BCMA-His protein (human) (UniProt Q02223); assay: competition ELISA vs hAPRIL-biotin on coated human BCMA; antibody 100.00 nM
[8] = target: human BCMA on cells (human) (UniProt Q02223); assay: FACS, H929 cells
[9] = target: human BCMA on cells (human) (UniProt Q02223); assay: FACS, U266 cells
[10] = target: human BCMA on cells (human) (UniProt Q02223); assay: FACS, H929 cells; remark: listed apart in the source
[11] = target: human BCMA on cells (human) (UniProt Q02223); assay: FACS, U266 cells; remark: listed apart in the source
[12] = target: human BCMA on cells (human) (UniProt Q02223); assay: FACS, RPMI8226 cells
[13] = target: human BCMA on cells (human) (UniProt Q02223); assay: FACS, RPMI8226 cells; remark: listed apart in the source
[14] = target: human BCMA on cells (human) (UniProt Q02223); assay: FACS, Flp-in CHO-human BCMA cells
[15] = target: monkey BCMA on cells (monkey); assay: FACS, Flp-in CHO-monkey BCMA cells
[16] = target: human BCMA-His protein (human) (UniProt Q02223); assay: ELISA, human BCMA-His coated; Ab 1 nM
[17] = target: human BCMA-His protein (human) (UniProt Q02223); assay: ELISA, human BCMA-His coated; Ab 10 nM
[18] = target: monkey BCMA-His protein (monkey); assay: ELISA, monkey BCMA-His coated; Ab 1 nM
[19] = target: human BCMA-His protein (human) (UniProt Q02223); assay: ELISA, human BCMA-His coated; Ab 10 nM; remark: listed apart in the source
[20] = target: monkey BCMA-His protein (monkey); assay: ELISA, monkey BCMA-His coated; Ab 1 nM; remark: listed apart in the source
[21] = target: human BCMA-His protein (human) (UniProt Q02223); assay: ELISA, human BCMA-His coated; Ab 0.1 nM
[22] = target: human BCMA-His protein (human) (UniProt Q02223); assay: ELISA, human BCMA-His coated; Ab 100 nM
[23] = target: monkey BCMA-His protein (monkey); assay: ELISA, monkey BCMA-His coated; Ab 10 nM
[24] = target: monkey BCMA-His protein (monkey); assay: ELISA, monkey BCMA-His coated; Ab 10 nM; remark: listed apart in the source
[25] = target: human BCMA-His protein (human) (UniProt Q02223); assay: ELISA, human BCMA-His coated; Ab 0.01 nM
[26] = target: monkey BCMA-His protein (monkey); assay: ELISA, monkey BCMA-His coated; Ab 0.1 nM
[27] = target: monkey BCMA-His protein (monkey); assay: ELISA, monkey BCMA-His coated; Ab 100 nM
[28] = target: monkey BCMA-His protein (monkey); assay: ELISA, monkey BCMA-His coated; Ab 0.1 nM; remark: listed apart in the source
[29] = target: monkey BCMA-His protein (monkey); assay: ELISA, monkey BCMA-His coated; Ab 100 nM; remark: listed apart in the source
[30] = target: human BCMA-His protein (human) (UniProt Q02223); assay: ELISA, human BCMA-His coated; Ab 0.001 nM
[31] = target: monkey BCMA-His protein (monkey); assay: ELISA, monkey BCMA-His coated; Ab 0.01 nM
[32] = target: human BCMA-His protein (human) (UniProt Q02223); assay: ELISA, human BCMA-His coated; Ab 0.0001 nM
[33] = target: monkey BCMA-His protein (monkey); assay: ELISA, monkey BCMA-His coated; Ab 0.001 nM
[34] = target: human BCMA-His protein (human) (UniProt Q02223); assay: ELISA, human BCMA-His coated; Ab 0.0001 nM; remark: listed apart in the source
[35] = target: monkey BCMA-His protein (monkey); assay: ELISA, monkey BCMA-His coated; Ab 0.001 nM; remark: listed apart in the source
[36] = target: monkey BCMA-His protein (monkey); assay: ELISA, monkey BCMA-His coated; Ab 0.0001 nM
[37] = target: monkey BCMA-His protein (monkey); assay: ELISA, monkey BCMA-His coated; Ab 0.0001 nM; remark: listed apart in the source
[38] = target: human BCMA on cells (human) (UniProt Q02223); assay: cell ELISA, Flp-inCHO-human BCMA cells; Ab 0.01 nM
[39] = target: human BCMA on cells (human) (UniProt Q02223); assay: cell ELISA, Flp-inCHO-human BCMA cells; Ab 0.02 nM
[40] = target: human BCMA on cells (human) (UniProt Q02223); assay: cell ELISA, Flp-inCHO-human BCMA cells; Ab 0.05 nM
[41] = target: human BCMA on cells (human) (UniProt Q02223); assay: cell ELISA, Flp-inCHO-human BCMA cells; Ab 0.14 nM
[42] = target: human BCMA on cells (human) (UniProt Q02223); assay: cell ELISA, Flp-inCHO-human BCMA cells; Ab 0.41 nM
[43] = target: human BCMA on cells (human) (UniProt Q02223); assay: cell ELISA, Flp-inCHO-human BCMA cells; Ab 1.23 nM
[44] = target: human BCMA on cells (human) (UniProt Q02223); assay: cell ELISA, Flp-inCHO-human BCMA cells; Ab 3.70 nM
[45] = target: human BCMA on cells (human) (UniProt Q02223); assay: cell ELISA, Flp-inCHO-human BCMA cells; Ab 0.002 nM
[46] = target: human BCMA on cells (human) (UniProt Q02223); assay: cell ELISA, Flp-inCHO-human BCMA cells; Ab 11.11 nM
[47] = target: human BCMA on cells (human) (UniProt Q02223); assay: cell ELISA, Flp-inCHO-human BCMA cells; Ab 33.33 nM
[48] = target: human BCMA on cells (human) (UniProt Q02223); assay: cell ELISA, Flp-inCHO-human BCMA cells; Ab 100.00 nM

human BCMA-His protein (human), sequence (Q02223 1-54 limits assumed): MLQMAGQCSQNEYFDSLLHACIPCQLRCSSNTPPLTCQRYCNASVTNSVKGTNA
monkey BCMA-His protein (monkey), sequence (A0A2K5 entry or part of it limits assumed): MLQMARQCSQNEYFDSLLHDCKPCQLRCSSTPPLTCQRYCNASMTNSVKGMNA
human BCMA on cells (human), sequence (Q02223 whole entry): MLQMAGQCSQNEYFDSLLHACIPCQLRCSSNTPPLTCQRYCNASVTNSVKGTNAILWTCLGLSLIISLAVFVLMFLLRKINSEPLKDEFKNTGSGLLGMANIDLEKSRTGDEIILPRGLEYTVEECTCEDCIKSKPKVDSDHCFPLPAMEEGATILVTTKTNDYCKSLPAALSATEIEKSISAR

OD450 [1]: 1.43 OD450 and 1.28 OD450 and 1.63 OD450 | OD450 [2]: 1.41 OD450 and 1.31 OD450 and 1.48 OD450 | OD450 [3]: 1.43 OD450 and 1.27 OD450 and 1.53 OD450 | OD450 [4]: 1.38 OD450 and 1.29 OD450 and 1.53 OD450 | OD450 [5]: 1.39 OD450 and 1.24 OD450 and 1.51 OD450 | OD450 [6]: 1.41 OD450 and 1.31 OD450 and 1.46 OD450 | OD450 [7]: 1.54 OD450 and 1.45 OD450 and 1.57 OD450
Substance: anti-hel-hIgG1 (antibody)

Maximum mean fluorescence intensity [8]: 110 | Maximum mean fluorescence intensity [9]: 103 | Maximum mean fluorescence intensity [10]: 94 and 69 | Maximum mean fluorescence intensity [11]: 86 and 101 | Maximum mean fluorescence intensity [12]: 118 | Maximum mean fluorescence intensity [13]: 81 and 107 | Cell mean fluorescence density [14]: 54.6 | Cell mean fluorescence density [15]: 49 | OD450 [16]: 0.05 | OD450 [17]: 0.07 | OD450 [18]: 0.05 | OD450 [19]: 0.27 and 0.12 | OD450 [20]: 0.06 and 0.17 | OD450 [21]: 0.05 | OD450 [22]: 0.12 | OD450 [23]: 0.06 | OD450 [24]: 0.08 | OD450 [25]: 0.05 | OD450 [26]: 0.05 | OD450 [27]: 0.1 | OD450 [28]: 0.08 and 0.19 | OD450 [29]: 0.08 and 0.18 | OD450 [30]: 0.05 | OD450 [31]: 0.04 | OD450 [32]: 0.05 | OD450 [33]: 0.05 | OD450 [34]: 0.06 and 0.09 | OD450 [35]: 0.06 and 0.17 | OD450 [36]: 0.05 | OD450 [37]: 0.06 and 0.08 | OD450 [38]: 0.08 and 0.09 | OD450 [39]: 0.08 and 0.1 | OD450 [40]: 0.08 and 0.09 | OD450 [41]: 0.08 and 0.09 | OD450 [42]: 0.08 and 0.09 | OD450 [43]: 0.08 and 0.09 | OD450 [44]: 0.08 and 0.09 | OD450 [45]: 0.08 and 0.09 | OD450 [46]: 0.08 and 0.1 | OD450 [47]: 0.09 and 0.14 | OD450 [48]: 0.11 and 0.28
Substance: anti-hel-hIgG1 (negative control antibody against hen egg lysozyme)
